Source: the DeepSol protein solubility set

Assay: soluble on expression in E. coli; label from the status in PepcDB or PDB records
In the case of “DETIHLERGENLFEIHINKVTFSSEVLQASGDKEPVTFCTYAFYDFELQTTPVVRGLHPEYNFTSQYLVHVNDLFLQYIQKNTITLEVHQAYSTEYETIAACQLKFHEILEKSGRIFCTASLIGTKGDIPNFGTVEYWFRLRV”, the “soluble on expression in E. coli” value is reported as “soluble”.
For “DGTLVVDIDGCISHANPAAETLLAGPEESLVGQQVEAVIPTWDSLTVDDEQADWSELALSVDGQQRFVELEVTPFADRF”, the “soluble on expression in E. coli” value was “not soluble”.
For “DGYWYGDYYGVMSFGVNTDLVQEVPKSWEALLDSQYANAFALAGDPRASNQAILAVMSAGIADGTEPGEASGKKGLEFFGKLNKAGGFVPVIGKAGTIAQGQTPIVAAWDYNLLSWRDELKGNPPMEVVIPEGPSLAGVYVQAISAFAPHPNAAKLWMEYLYS”, the “soluble on expression in E. coli” value was “not soluble”.
For “DHWLRQDLRQMFIEELGSNAREIIQFVVGSHDIGKATPLFQYQKAQKGEVWDSIRYAIDRTGRYQKPLPSSYLVKKTSGGPNRHEQWSSFASKNEYLKPSAAAKENWIGLAIGGHHGRFEPVGYGRHQRKAAEDLAKSGWSAAQQDLLRALEKASGITRASLPSELSPELTLVLSGLTILADRISSTESFVITGARMIDDGTLHLATPIDWLKTRKLDSEKHVAKTVGIYHGWNNHESAIHSILKGYDPRPLQTIALQNQVGLLNLMAPTGNGKTEAAILRHSLKENDRLIFLLPTQATSNAIMRRVQGIYSDTPNVAALAHSLASVEDFYQTPLSVFDDHYDPSKEQFESSMSG”, the “soluble on expression in E. coli” value was “not soluble”.
For “DIMVVVDAGHGGKDPGAVGSRGEREKDVVLSIAQLLAKRLKREKGFDVRLVRNDDFFVPLRKRVEFAHKSNADMFISVHADAAPRLTASGASVFALSEGGATSATARFMAQRENGADLLGATSLLNLKDKDPMLAGVILDMSMNATIAASLQLGHTILGSLEGITTLHQKRVEQAGFAVLKSPDVPSILVETGFISNSRDSQRLVTARHQQAVADGLFDGLQRYFQRNPPMDSHLAWMQAQKQEQQA”, the “soluble on expression in E. coli” value was “not soluble”.
For “DIVLTQSPATLSVTPGNSVSLSCRASQSIGNNLHWYQQKSHESPRLLIKYASQSISGIPSRFSGSGSGTDFTLSINSVETEDFGMYFCQQSNSWPYTFGGGTKLEITGGGGSGGGGSGGGGSDIQLQESGPSLVKPSQTLSLTCSVTGDSITSDYWSWIRKFPGNRLEYMGYVSYSGSTYYNPSLKSRISITRDTSKNQYYLDLNSVTTEDTATYYCANWDGDYWGQGTLVTVSAAHHHHHH”, the “soluble on expression in E. coli” value was “soluble”.
For “DKDVLEVKLDKKEYKAGETATALIQSPYADAELYFAVIKDKPIYQQITKVQGSAPQIQFRVTPEMLPNAAVEAVLVRQGKPINQVEVGSLDNLVKIGFTPFKVNLEDKYLKLQVKPAQASLEPGAEETIQLEVKDNQGNPTKGQLTVMVVNEAVLQLSGY”, the “soluble on expression in E. coli” value was “not soluble”.
In the case of “DKSRIAHMIDEWDGKEIIYPDDLVFTTMGEDTVKWFLKDSRYTIVTYADSIGCMGCKLKLPVWKDFISYLDSVSDHTVKVIFILHPRDKKEMVHLLEYNDFSYPVCLDIKGSFDKINKIPSNLAFQTFLLDNRNKVIAIGNPIHNPNVRTLYLNLILSDSICKS”, the “soluble on expression in E. coli” value is reported as “not soluble”.
For “DLVIIVDDERRIVDVNAAATALFDGDQNTLLGRSLPQASPTLAETVPGPGERTQTETALERDGSVRYYDVRVIPLYRAYGVVSGHLISLRD”, the “soluble on expression in E. coli” value was “not soluble”.
In the case of “DLVPQIIWTGSSDGFIDYYNKRWYEYTGFDGKAFGDKSWVPVMHPDDVQEVLDCWYGSVKKGTPYQIELRMKSAETGEYRWFLSKALPIKDKTGVITKWFGTCTDI”, the “soluble on expression in E. coli” value is reported as “not soluble”.
For “DMRVVSVNPAARRLLDLPDDYIPIERPLEEVCAKIPFGPDELGEGESRTWRLPTAEVRRITRMRFFDRSFSRLFFSIETLTEELHSAEKEAYEKLIRLIAHEVNNSTAGIIGVLNAVGDAFDDTPHTPEGEVSEAIALCRDRCMAMSRFITRFAEVVKLPDPTLSSVDLVPLCERCILLMQPLAVETGVKMKMCKEQDSCLVRCDAEQIEQVVINLLRNAIESFAQQNDLAVSATKTVLLCLDRHNLLVEDNGQPISDDVATRLFTPFFSTKPNGQGIGLVVIREVLTRHGWSFSLTTDADGRTRFRMAWP”, the “soluble on expression in E. coli” value was “not soluble”.
With “DMWVYCETQAGDLVDVSKEMLGKARELMNDYNAAYDEDERVVAVLIGAAASDHVEDVIAYGADLVVYHEDDRLDRFRHQPYTEIFCDMARAGGDLAADGREETEWKDYHEPRYTVFPATNNGRDLSALVQGELDSGLASDCSGLYIESAMISNPAKVGTAGDKKEFERVLHMKRPDFSGFEYSTILCIDKPHRDFHPQGASVIPGSFEMPDPDYERDGEVVDYGMDIDDDWFTVEVEEYDRLSGGVD” the “soluble on expression in E. coli” value was “not soluble”.
For “DNGLHYSVGFNLSDTRAEITKYDNPTKSLSSPYYEGQIVGDIWGYESSLFQSADEIASAPDQSKLDGGISKVPGDIRFMDIDGNGVVDYGENTVDKPGDMKIIGNNKARYRYGFNISADWKGFDLGIFFQGVGKRDLMLPYTFKWQYGSMWQVSTAVGNDYWREDNAGGWLPVARFNGSQALGQNQTRYLLDASYLRLKSLSFGYTLPVSLTKQWGIQKCRVYFTGENLLTFKHTPEGFDPELDDPYKYPQQKSLALGLNVVF”, the “soluble on expression in E. coli” value was “not soluble”.
For “DPSVVLQMAEGPATYEQAPAGAPPANDPQARFVAKVLGETEDTWGAIFTQSLNRNYVPPKLVLFRGATPTACGTGQAAMGPFYCPGDSKVYIDLGFFDEMERRLNAPGDFAQAYVIAHEVGHHVQHLLGVSEQVDRLRQRNPAQANALSVRMELQADCFAGLWARRADQARNILESGDIEEGLNAASAIGDDTLQKKSQGYVVPDAFTHGSSAQRVRWFKRGLESGDLRQCDTF”, the “soluble on expression in E. coli” value was “not soluble”.
In the case of “DRLTEEYGMHVYGIEFDEDRIIELRDRGYRIVAGDVTDPELWRRIELLDIPQLFAMSLPRYTDSDKVLARIHHDYPGATVATITQTRGREQALLTAGADVAVYLYEGVGDELADQAVAHLRQG”, the “soluble on expression in E. coli” value is reported as “not soluble”.
With “DSLDEQRSRYAQIKQAWDNRQMDVVEQMMPGLKDYPLYPYLEYRQITDDLMNQPAVTVTNFVRANPTLPPARTLQSRFVNELARREDWRGLLAFSPEKPGTTEAQCNYYYAKWNTGQSEEAWQGAKELWLTGKSQPNACDKLFSVWRASGKQDPLAYLERIRLAMKAGNTGLVTVLAGQMPADYQTIASAIISLANNPNTVLTFARTTGATDFTRQMAAVAFASVARQDAENARLMIPSLAQAQQLNEDQIQELRDIVAWRLMGNDVTDEQAKWRDDAIMRSQSTSLIERRVRMALGTGDRRGLNTWLARLPMEAKEKDEWRYWQADLLLERGREAEAKEILHQLMQQRGFYPMVAAQRIGEEYELKIDKAPQNVDSALTQGPEMARVRELMYWNLDNTARSEWANLVKSKSKTEQAQLARYAFNNQWWDLSVQATIAGKLWDHLEERFPLAYNDLFKRYTSGKEIPQSYAMAIARQESAWNPKVKSPVGASGLMQIMPGTATHTVKMFSIPGYSSPGQLLDPETNINIGTSYLQYVYQQFGNNRIFSSAAYNAGPGRVRTWLGNSAGRIDAVAFVESIPFSETRGYVKNVLAYDAYYRYFMGDKPTLMSATEWGRRY” the “soluble on expression in E. coli” value was “soluble”.
With “DSLKAEVNTLFARFDEQPLAAASIAQVHTAALFDGREVIVKVTRPNIRTQILQDFEIISWLGQSLESRLEAARALHLSEIIQDYRQIILNELDLTLEADNTRRMRHYFTGSSMMYVPEVY” the “soluble on expression in E. coli” value was “not soluble”.
With “DTETTGLPADETQFISGVDAPAPVSVGWQLLDFRFRCIEEVVCRLSTDEPVSPEAAALHGITDASLHGDDPHEVYARLLGAVSKAKVLSAHNLAFHRSVLVYDMRRRGFDPSPLFSLDDYCTMEAGVDFTHLYGSCGTWKLPRLTELFGVLYFGLPGVRTTYREKVRNDIRLVAACLHRMNPTTPSLE” the “soluble on expression in E. coli” value was “not soluble”.
For “DTTGSTPAPIDENGTVLALLPEFEHNPNAMFVLWKDHTSVAKADRINELAHSGKFTDYTRYVGGVYSSEWFWAKAAWVSEQDEQVAKRAFSWVELCDWIPAILADTQHPQKLRRGICAAGHKAMWHESWGGLPEQAFLSAISPTLDGIRDRMFTEVFTSDQAAGYLSKAWAIKLGLPEGIAIAIGEFDCHMGAVGAGAGANDLVKVIGTSTCDILMVESQNVGDRTIHGICGQVEGSAMPELLALEAGQSAFGDMYAWFKNVLMWPLQAYAEHNPDFALTAEEIASELLPMLSQAAEQQGIDQYTPVAMDWLNGRRTPYANQRLKGAICDLNLGSSSPAIFSALVESTAHGAKAIVDCFIEQDVTVERVIAIGGIAQKSPYVMQMCADVIGRDIIVVESDQ”, the “soluble on expression in E. coli” value was “not soluble”.
With “DVGSAIDAAHQAFLRYQQCPLKTRSAIISALRETLAPELATLAEESATETGMGNKEDKYLKNKAALENTPGIEDLTTSALTGDGGMVLFEYSPFGVIGAVAPSTNPTETIINNSISMLAAGNSVYFSPHPGAKKVSLKLIARIEEIAYRCSGIRNLVVTVAEPTFEATQQMMSHPLIAVLAITGGPGIVAMGMKSGKKVIGAGAGNPPCIVDETADLVKAAEDIISG” the “soluble on expression in E. coli” value was “not soluble”.
For “DVKLVESGGGLVKPGRSLKLSCAASGFTFSDYYMFWVRQTPEQRLEWVATISDGGAYTYYPDSVKGRFTISRDNAKNNLYLQMNSLKSEDTGMYYCARDPLEYYGMDYWGQGTSVAVSSAKTTAPSVYPLAPVCGDTTGSSVTLGCLVKGYFPEPVTVTWNSGSLSSGVHTFPAVLQSDLYTLSSSVNVTSSTWPSQSITCNVAHPASSTKVDKKIVPR”, the “soluble on expression in E. coli” value was “soluble”.
For “DVQPETCRPSAASGNYFPQYPEYAIETARLRTFEAWPRNLKQKPHQLAEAGFFYTGVGDRVRCFSCGGGLMDWNDNDEPWEQHALWLSQCRFVKLMKGQLYIDTVAAKPVLAEEKEESTSIGGD”, the “soluble on expression in E. coli” value was “soluble”.
In the case of “EAMFCDFPKINHGILYDEEKYKPFSQVPTGEVFYYSCEYNFVSPSKSFWTRITCAEEGWSPTPKCLRLCFFPFVENGHSESSGQTHLEGDTVQIICNTGYRLQNNENNISCVERGWSTPPKCRSTISAEKCGPPPPIDNGDITSFLLSVYAPGSSVEYQCQNLYQLEGNNQITCRNGQWSEPPKCLDPCVISQEIMEKYNIKLKWTNQQKLYSRTGDIVEFVCKSGYHPTKSHSFRAMCQNGKLVYPSCEEK”, the “soluble on expression in E. coli” value is reported as “not soluble”.
In the case of “EAVHRLDLILCNKTAYQEVFKPENISLRNKLRELCVKLMFLHPVDYGRKAEELLWRKVYYEVIQLIKTNKKHIHSRSTLECAYRTHLVAGIGFYQHLLLYIQSHYQLELQCCIDWTHVTDPLIGCKKPVSASGKEMDWAQMACHRCLVYLGDLSRYQNELAGVDTELLAERFYYQALSVAPQIGMPFNQLGTLAGSKYYNVEAMYCYLRCIQSEVSFEGAYGNLKRLYDKAAKMYHQLKKCETRKLSPGKKRCKDIKRLLVNFMYLQSLLQPKSSSVDSELTSLCQSVLEDFNLCLFYLPSSPNLSLASEDEEEYESGYAFLPDLLIFQMVIICLMCVHSLERAGSKQYSAAIAFTLALFSHLVNHVNIRLQAELEEGENPVPAFQSDGTDEPESKEPVEKEEEPDPEPPPVTPQVGEGRKSRKFSRLSCLRRRRHPPKVGDDSDLSEGFESDSSHDSARASEGSDSGSDKSLEGGGTAFDAETDSEMNSQESRSDLEDMEEEEGTRSPTLEPPRGRSEAPDSLNGPLGPSEASIASNLQAMSTQMFQTKRCFRLAPTFSNLLLQPTTNPHTSASHRPCVNGDVDKPSEPASEEGSESEGSESSGRSCRNERSIQEKLQVLMAEGLLPAVKVFLDWLRTNPDLIIVCAQSSQSLWNRLSVLLNLLPAAGELQESGLALCPEVQDLLEGCELPDLPSSLLLPEDMALRNLPPLRAAHRRFNFDTDRPLLSTLEESVVRICCIRSFGHFIARLQGSILQFNPEVGIFVSIAQSEQESLLQQAQAQFRMAQEEARRNRLMRDMAQLRLQLEVSQLEGSLQQPKAQSAMSPYLVPDTQALCHHLPVIRQLATSGRFIVIIPRTVIDGLDLLKKEHPGARDGIRYLEAEFKKGNRYIRCQKEVGKSFERHKLKRQDADAWTLYKILDSCKQLTLAQGAGEEDPSGMVTIITGLPLDNPSVLSGPMQAALQAAAHASVDIKNVLDFYKQWKEIG”, the “soluble on expression in E. coli” value is reported as “soluble”.
